Reference: patent US20210261685A1 (Alector, published 2021)
Where a chain is given by its changes, count along the chain named.

T1: human MerTK extracellular domain (ECD), recombinant (human, UniProt Q12866 21-505)
T1 construct: also called huMerTK; not shown: polyHis tag or TEVS/Thrombin/murine IgG2a Fc tag
T1 sequence: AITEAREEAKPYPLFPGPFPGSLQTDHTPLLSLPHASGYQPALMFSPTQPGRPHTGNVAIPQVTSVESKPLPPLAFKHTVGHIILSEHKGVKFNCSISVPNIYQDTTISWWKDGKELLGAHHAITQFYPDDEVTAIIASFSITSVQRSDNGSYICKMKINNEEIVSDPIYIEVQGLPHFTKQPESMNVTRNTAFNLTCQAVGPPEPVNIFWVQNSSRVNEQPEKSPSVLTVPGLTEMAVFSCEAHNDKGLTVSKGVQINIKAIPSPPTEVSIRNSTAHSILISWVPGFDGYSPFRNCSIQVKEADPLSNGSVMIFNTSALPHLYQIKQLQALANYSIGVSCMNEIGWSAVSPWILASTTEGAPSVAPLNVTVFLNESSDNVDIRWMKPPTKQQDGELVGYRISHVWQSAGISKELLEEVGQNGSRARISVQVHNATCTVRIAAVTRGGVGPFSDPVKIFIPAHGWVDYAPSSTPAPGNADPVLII

T2: murine MerTK extracellular domain (ECD), recombinant (mouse, UniProt Q60805 19-497)
T2 construct: also called moMerTK; mouse MerTK; not shown: polyHis tag or TEVS/Thrombin/murine IgG2a Fc tag
T2 sequence: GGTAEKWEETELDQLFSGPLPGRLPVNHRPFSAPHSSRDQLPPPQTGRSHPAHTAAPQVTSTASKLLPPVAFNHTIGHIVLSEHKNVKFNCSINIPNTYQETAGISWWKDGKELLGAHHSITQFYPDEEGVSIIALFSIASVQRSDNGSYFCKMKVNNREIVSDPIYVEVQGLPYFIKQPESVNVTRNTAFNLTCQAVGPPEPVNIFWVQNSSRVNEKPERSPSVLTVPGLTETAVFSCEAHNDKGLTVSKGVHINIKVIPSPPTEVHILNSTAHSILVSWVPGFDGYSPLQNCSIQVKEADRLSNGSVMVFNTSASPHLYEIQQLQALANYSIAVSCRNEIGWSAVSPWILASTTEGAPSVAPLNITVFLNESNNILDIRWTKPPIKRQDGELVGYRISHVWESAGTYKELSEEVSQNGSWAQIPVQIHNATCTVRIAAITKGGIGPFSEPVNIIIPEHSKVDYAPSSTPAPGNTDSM

B1: MTK-15 (antibody, human IgG1, V domains shown)
VH: QIQLVQSGPELKKPGETVKISCKASGYTFTNYGVHWVKQAPGKGLKWMGWINTYTGEPTYADDFKGRFAFSLETSASTAYLQINNLKNEDMATYFCARGNRYAYMDYWGQGTSVTVSS
VL: QIVLSQSPAILSASPGEKVTMTCRASSSVSYMHWYQQKSGSSPKPWIYATSNLASGVPARFSGSGSGTSYSLTISRVEAEDAATYYCQQWSSNPRTFGGGTKLEIK
B2: MTK-06 (antibody, human IgG1, V domains shown)
VH: QIQLVQSGPELKKPGETVKISCKASGYTFTNYGMNWVKQAPGKGLKWMGWINTNTGEPTYAEEFKGRFAFSLETSASTAYLQINNLKNEDTATYFCARYYNYWYFDVWGAGTTVTVSS
VL: B1 VL with S39P, N93K, R95P
B3: MTK-04 (antibody, human IgG1, V domains shown)
VH: QIQLVQSGPELKKPGETVKISCKASGYTFTNYGMNWVKQAPGKGLKCMGWINTYTGEPTYADDFKGRFAFSLETSASTAYLQINNLKNEDMATYFCAKYDNYAWFAYWGQGTLVTVSA
VL: B1 VL with I10F, Q36L, S39P, A59V, K106R
B4: MTK-12 (antibody, human IgG1, V domains shown)
VH: QVQLQQSGPQLVRPGASVKISCKASGYSFTSHWMHWVKQRPGQGLEWIGMIDPSDGESRLNQKFKDKATLTVDKSSSTAYMQLSSPTFEDSAVYYCARGIYYYGITYAMDYWGQGTSVTVSS
VL: QIVLTQSPAIMSASPGEKVTMTCSASSSVSYMYWYQQKPRSSPRLLIYDTSNLASGVPVRFSGSGSGTSYSLTISRMEAEDAATYYCQQWSSYPLTFGAGTKLELK
B5: MTK-11 (antibody, human IgG1, V domains shown)
VH: QVQLKQSGPGLVQPSQSLSITCTVSGFSLTDYGVHWVRQSPGKGLEWLGVIWSSGTTDYNEAFISRLSISKDNSKSHVFFKMNSLQAIDTAIYYCARKGHDPYAMDYWGQGTSVTVSS
VL: QIVLTQSPAIMSASLGERVTMTCTASSSISSSYFHWYQQKPGSSPKLWIYSTSNLPSGVPARFSGSGSGTSYSLTISSMEAEDAATYYCHQYYRSPLTFGAGTKLELK
B6: MTK-03 (antibody, human IgG1, V domains shown)
VH: DVQLQESGPGLVKPSQSLSLTCSVTGYSITSGYYWNWIRQFPGNTLEWMGYMSFDGDNKFNPSLKNRISITRDTSKNQFFLRLNSVTTEDTATYYCARGGYNYGSTEANWGQGTLVTVSA
VL: QIVLTQSPAIMSAFPGEKVTITCSASSSVNYMHWFQQKPGTSPKLWIYSTSNLASGVPARFSGSGSGTSYSLTISRMEAEDAATYYCQQRSSYPFTFGSGTKLEIK
B7: MTK-13 (antibody, human IgG1, V domains shown)
VH: DVQLQESGPGLVKPSQSLSLTCSVTGYSITSGYYWNWIRQFPGNKLEWMGNIDYDGSNKYNPSLKNRISITRDTSKNHFFLKLNSVTPEDTATYFCARDGGNYRSFAYWGQGTLVTVSA
VL: B6 VL with A9P, F14S, N30S, H33Y, S51F, A82V
B8: MTK-07 (antibody, human IgG1, V domains shown)
VH: B6 VH with A120T
VL: B6 VL with N30T, Y48F
B9: MTK-17 (antibody, human IgG1, V domains shown)
VH: QIQLVQSGPELKKPGETVKISCKASGYTFTNFGMNWVKQAPGKGLKWMGWINTYTGEPTYADDFKGRFAFSLETSASTAYLQINNLKNEDTATYFCSRGAVLRAGAMDCWGQGTSVTVSS
VL: DIQMTQSSSYLSVSLGGRVTITCKASDHINNWLAWYQQKPGNAPRLLISGATSLETGVPSRFSGSGSGKDYTLSITSLQTEDVATYYCQQYWSTPRTFGGGTKLEIK
B10: MTK-10 (antibody, human IgG1, V domains shown)
VH: QVTLKESGPGILQPSQTLSLTCSFSGFSLTTSGMGVGWIRQPSGKGLEWLAHIWSDDDKRSNPALKSRLTISQDSSTNQVFLKIASVDTADSATYYCSHLTPVREFAYWGPGTLVTVSE
VL: DIQMTQTTSSLSASLGDRVTISCSASQGISNYLNWFQQKPDGTVKLLIYYTSRLHSGVPSRFSGSGSGTDFSLTISNLEPEDIATYYCQQYTKLPYTFGGGTKLEIK
B11: MTK-20 (antibody, human IgG1, V domains shown)
VH: QIQLVQSGPELKKPGETVKISCKASGYTFTNYGMTWVKQAPGKGLKWMGWINTYTGEPTYADDFKGRFALSLETSASTAYLQINNLKNEDTATYFCARGGGRLGLRPLDYWGQGTTLTVSS
VL: DIQMTQTTSSLSASLGDRVTISCRASQDINNYLNWYQQKPDGTVKLLIYYTSRLHSGVPSRFSGSGSGTDYSLTISNLEQEDIATYFCQQGNTLPWTFGGGTKLEIK
B12: MTK-21 (antibody, human IgG1, V domains shown)
VH: B11 VH with Y32F, K38R, K43M, G44D, T59K, N84T, L86F
VL: B11 VL with R53S, S76T, K103R
B13: MTK-18 (antibody, human IgG1, V domains shown)
VH: B11 VH with N31H, L70F, R102Q
VL: B11 VL with I21F, D28A, N30S
B14: MTK-33 (antibody, human IgG1, V domains shown)
VH: QVQLQQPGPELVRPGTSVKLSCKASGYTFTSYWMHWIKQRPGQGLEWIGVIDPSDNYINYNQKFKGKATLTVDTSSSTAYLQLSSLTSEDSAVYYCAREAGTRGYFDYWGQGTTLTVSS
VL: SIVMTQTPKFLLVSAGDRVIITCKASQSVSNTVAWYQQKPGQSPKLLIYYASNRYTGVPDRFTGSGYGTDFTFTISTVQAEDLAVYFCQQDYRSPFTFGSGTQLEMK
B15: MTK-16 (antibody, human IgG1, V domains shown)
VH: LIQLVQSGPELKKPGETVKISCKASGYTFTNHGMNWVKQDPGKGLKWMGWINTYTGEPTYADDFKGRFVFSMETSASAAFLQINNLKNEDTATYFCARKGVTAARYFDYWGQGTTLTVSS
VL: DIVMTQSPKFMSTSVGDRVSITCKASQNVRTAVAWYKKKPGQSPKALINLASNRHTGVPDRFTGSGSGTDFTLTISNVQSEDLADYFCLQHWNYPLTFGGGTKLEIK
B16: MTK-19 (antibody, human IgG1, V domains shown)
VH: EVQLQQSGPELVKPGASVKISCKTSGYTFTEYTMHWVKQSHGKSLEWLGGFNPNNVITSYNQRFQGRATLTVDKSSSTAYMELRSLTSDDSAVYYCTRGDLLWSLLLPGNYFDYWGQGTTLTVSS
VL: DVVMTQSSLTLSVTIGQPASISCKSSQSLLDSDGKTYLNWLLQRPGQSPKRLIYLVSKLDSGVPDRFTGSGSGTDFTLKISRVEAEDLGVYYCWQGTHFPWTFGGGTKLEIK
B17: MTK-05 (antibody, human IgG1, V domains shown)
VH: QVQLQQSGAELVQPGTSVRLSCKTSGYTFTSYWIQWVKQRPGQGLGWIGEIFPGTGTTYYNEKFKGKATLTIDTSSSTAYMQLSSLTSEDSAVYFCARDGAYFDVWGAGTTVTVSS
VL: DIQMTQSPASLSASVGETVTFTCRASENIFSYLAWYQQKQGKSPQLLVYNAKTLAEGVPSRFSGSGSGTHFSLKINSLQPEDFGSYYCLHHYGTPLTFGAGTKLELK
B18: MTK-01 (antibody, human IgG1, V domains shown)
VH: B3 VH with S77T, M91T, K98R, Y99R, N101R, A103T
VL: B1 VL with S39P, R95P

What follows are binders tested against T1, human MerTK extracellular domain (ECD), … (assay: SPR, Carterra LSA, antibody immobilised).
Outline: (§1)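 Anti-MerTK antibodies diluted to 10 μg/ml in 10 mM Acetate, pH 4.25 were amine-coupled in a 96-spot array onto an HC200M chip activated with MES/sulfo-NHS/EDC, then blocked with 1M Ethanolamine pH 8.5. On a Carterra LSA, recombinant MerTK extracellular domain was injected at 33.3, 100, and 300 nM in HBS-TE with 0.5 mg/ml BSA, lowest to highest without regeneration. KD came from fitted k-on and k-off.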

| Kd | Binder |
| --- | --- |
| 2.7 nM | B1 |
| 18 nM | B2 |
| 33 nM | B3 |
| 5.3 nM | B4 |
| 3 nM | B5 |
| 54 nM | B6 |
| 37 nM | B7 |
| 43 nM | B8 |
| 25 nM | B9 |
| 2 nM | B10 |
| 9.3 nM | B11 |
| 40 nM | B12 |
| 18 nM | B13 |
| 6.5 nM | B14 |
| 1.4 nM | B15 |
| 2.4 nM | B16 |
| 6.7 nM | B17 |

What follows are binders tested against T2, murine MerTK extracellular domain … (assay: SPR, Carterra LSA, antibody immobilised).
Outline: as §1

| binding result | Kd | Binder |
| --- | --- | --- |
| no binding (tested: 300 nM) | – | B18 |
| no binding (tested: 300 nM) | – | B1 |
| no binding (tested: 300 nM) | – | B2 |
| no binding (tested: 300 nM) | – | B3 |
| no binding (tested: 300 nM) | – | B4 |
| no binding (tested: 300 nM) | – | B5 |
| no binding (tested: 300 nM) | – | B6 |
| no binding (tested: 300 nM) | – | B7 |
| no binding (tested: 300 nM) | – | B8 |
| no binding (tested: 300 nM) | – | B9 |
| no binding (tested: 300 nM) | – | B10 |
| no binding (tested: 300 nM) | – | B11 |
| no binding (tested: 300 nM) | – | B12 |
| no binding (tested: 300 nM) | – | B13 |
| – | 75 nM | B14 |
| no binding (tested: 300 nM) | – | B15 |
| – | 130 nM | B16 |
| no binding (tested: 300 nM) | – | B17 |
